Molecular target: Lrp transcriptional regulator from Haloferax mediterranei (HFX_RS01210) (Haloferax mediterranei)
Assay: SEC; Superose6 Increase 10/300 GL, 50 mM Tris-HCl pH 8.0, 150 mM NaCl; molecular mass estimated against standard proteins of 6.5 to 660 kDa in the same buffer

With “Lrp transcriptional regulator from Haloferax mediterranei (HFX_RS01210) (natural protein)” as the substance, how does the stoichiometry N read?
The stoichiometry N was 4.
